Ends that are not written are not given here.
T1: CRF2R
T1 sequence (Q13324 whole entry, species assumed, looked up): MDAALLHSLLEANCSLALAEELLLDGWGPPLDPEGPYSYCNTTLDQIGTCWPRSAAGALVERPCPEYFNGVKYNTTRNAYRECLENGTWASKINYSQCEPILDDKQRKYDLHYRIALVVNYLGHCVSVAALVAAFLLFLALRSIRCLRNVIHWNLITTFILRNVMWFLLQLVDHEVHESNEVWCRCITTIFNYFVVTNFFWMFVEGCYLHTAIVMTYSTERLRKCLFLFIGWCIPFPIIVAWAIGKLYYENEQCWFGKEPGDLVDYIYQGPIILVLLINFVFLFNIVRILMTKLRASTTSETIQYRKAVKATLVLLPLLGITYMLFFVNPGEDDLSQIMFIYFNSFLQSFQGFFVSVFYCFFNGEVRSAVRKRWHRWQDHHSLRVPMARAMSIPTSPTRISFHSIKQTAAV


target: T1, CRF2R; test: cell-based or functional assay
Wherever CRF1R Emax % is given: reference of the scale not given here.
Wherever CRF2R Emax % is given: reference of the scale not given here.

| Binder | CRF2R EC50 [nM] | CRF2R Emax % [%] |
| --- | --- | --- |
| DNPSLSIDLPLLLLRTLLELARTQSQRERAEQNARIFARV-NH2 [SEQ ID NO 340] | 7.99 | 100 |
| DNPSLSIDLPLLLLRTLLELEKTQSQRERAEQNAIIFASV-NH2 [SEQ ID NO 346] | 8.48 | – |
| IVLSLDVPIGLLQILLEKAAAEAEAAAKAAQEQILAHV-NH2 [SEQ ID NO 366] | 100 | 46 |
| IVLSLDVPIGLLQILLEQARARAAREQATTNARILARVM-NH2 [SEQ ID NO 356] | 83 | – |
| DNPSLSIDLPLLLLRTLLELEKTQSQRERAEQNARIFARV-NH2 [SEQ ID NO 341] | 8.83 | 95.5 |
| DNPSLSIDLPLFLLRTLLELEKTQSQRERAEQNAIIFASV-NH2 [SEQ ID NO 343] | 13.6 | 96.5 |
| ZGPPISIDLPFQLLRKVIEIEKQEKEKQQATTNARLLDRV (C-terminal amide) [SEQ ID NO 351] | 12.9 | 97.4 |
| ZGPPISIDLPLYLLRKMIEIEKQEKEKQQATTNARILARV (C-terminal amide) [SEQ ID NO 353] | 4.75 | 89.9 |
| ZGPPISIDLPFQLLRKAIEIEKQEKEKQQATTNARLLDRV (C-terminal amide) [SEQ ID NO 363] | 25.1 | 100 |
| PSLSIDLPLLLLRTLLELEKTQSQRERAEQNAIIFASV-NH2 [SEQ ID NO 348] | 5.77 | – |
| DNPSLSIDLPLILLRTLLELEKTQSQRERAEQNAIIFASV-NH2 [SEQ ID NO 345] | 39.7 | 100 |
| PSLSIDLPLLLLRTLLELEKTQSQRERAEQNAIIFASV-NH2 [SEQ ID NO 344] | 4.3 | – |
| ZGPPISIDLPFQLLRILIEIEKQEKEKQQAANNALLLAT (C-terminal amide) [SEQ ID NO 358] | 5.56 | 100 |
| DNPSLSIDLPLQLLRTLLELEKTQSQRERAEQNAIIFASV-NH2 [SEQ ID NO 342] | 20.2 | 92.2 |
| IVLSLDVPIGLLQILLEQARHAHAHAHAHAQAHILAHV-NH2 [SEQ ID NO 369] | 100 | 18 |
| IVLSLDVPIGLLQILLEQARARAAREQATTNARILARV-NH2 [SEQ ID NO 354] | 6.48 | 100 |

| Binder | CRF2R EC50 [nM] | CRF2R Emax % [%] |
| --- | --- | --- |
| IVLSLDVPIHLLQILLEQARARAAREQATTNARILARV-NH2 [SEQ ID NO 371] | 6.62 | 97 |
| IVLSLDVPIGLLQILLEQARHAAAHAAAHAQAHILAHV-NH2 [SEQ ID NO 367] | 100 | 18 |
| ZGPPISIDLPLQLLRKVIEIEKQEKEKQQAANNALLLATI (C-terminal amide) [SEQ ID NO 349] | 13.8 | 100 |
| ZGPPISIDLPFQLLRKIIEIEKQEKEKQQAANNALLLATI (C-terminal amide) [SEQ ID NO 362] | 4.39 | 100 |
| ZGPPISIDLPFQLLRKLIEIEKQEKEKQQAANNALLLATI (C-terminal amide) [SEQ ID NO 357] | 6.44 | 100 |
| ZGPPISIDLPFQLLRVLIEIEKQEKEKQQAANNALLLATI (C-terminal amide) [SEQ ID NO 361] | 6.37 | 99 |
| ZGPPISIDLPFQLLRKAIEIEKQEKEKQQAANNALLLDTI (C-terminal amide) [SEQ ID NO 365] | 23.4 | 94 |
| ZGPPISIDLSLELLRKMIEIEKQEKEKQQAANNRLLLDTI (C-terminal amide) [SEQ ID NO 355] | 6.03 | 95 |
| ZGPPISIDLPFQLLRKVIEIEKQEKEKQQAANNALLLDTI (C-terminal amide) [SEQ ID NO 350] | 11.6 | 98.1 |
| ZGPPISIDLPFQLLRKVIEIEKQEKEKQQAANNALLLATI (C-terminal amide) [SEQ ID NO 352] | 8.26 | 83.7 |
| ZGPPISIDLPFQLLRKAIEIEKQEKEKQQAANNALLLATI (C-terminal amide) [SEQ ID NO 364] | 13.2 | 100 |
| ZGPPISIDLPFQLLRLLIEIEKQEKEKQQAANNALLLATI (C-terminal amide) [SEQ ID NO 360] | 6.12 | 93 |
| ZGPPISIDLPFQLLREVIEIEKQEKEKQQAANNALLLATI (C-terminal amide) [SEQ ID NO 359] | 23.1 | 100 |
| IVLSLDVSIGLLQILLEQARARAAREQATTNARILARV-NH2 [SEQ ID NO 370] | 51 | 75 |
| IVLSLDVPIGLLQILLEQARARAAREQATTNARILARVM-NH2 [SEQ ID NO 368] | 50.4 | – |
| DNPSLSIDLPLLLLRTLLELEKTQSQRERAEQNAIIFASV-NH2 [SEQ ID NO 347] | 22.4 | – |

target: CRF1R; test: cell-based or functional assay

| Binder | CRF1R EC50 [nM] | CRF1R Emax % [%] |
| --- | --- | --- |
| DNPSLSIDLPLLLLRTLLELARTQSQRERAEQNARIFARV-NH2 [SEQ ID NO 340] | 740 | 96 |
| DNPSLSIDLPLLLLRTLLELEKTQSQRERAEQNAIIFASV-NH2 [SEQ ID NO 346] | 1000 | – |
| IVLSLDVPIGLLQILLEKAAAEAEAAAKAAQEQILAHV-NH2 [SEQ ID NO 366] | 1000 | 9 |
| IVLSLDVPIGLLQILLEQARARAAREQATTNARILARVM-NH2 [SEQ ID NO 356] | 1000 | – |
| DNPSLSIDLPLLLLRTLLELEKTQSQRERAEQNARIFARV-NH2 [SEQ ID NO 341] | 850 | 82.3 |
| DNPSLSIDLPLFLLRTLLELEKTQSQRERAEQNAIIFASV-NH2 [SEQ ID NO 343] | 783 | 62.5 |
| ZGPPISIDLPFQLLRKVIEIEKQEKEKQQATTNARLLDRV (C-terminal amide) [SEQ ID NO 351] | 1000 | 85.7 |
| ZGPPISIDLPLYLLRKMIEIEKQEKEKQQATTNARILARV (C-terminal amide) [SEQ ID NO 353] | 230 | 92.2 |
| ZGPPISIDLPFQLLRKAIEIEKQEKEKQQATTNARLLDRV (C-terminal amide) [SEQ ID NO 363] | 1000 | 20 |
| PSLSIDLPLLLLRTLLELEKTQSQRERAEQNAIIFASV-NH2 [SEQ ID NO 348] | 630 | – |
| DNPSLSIDLPLILLRTLLELEKTQSQRERAEQNAIIFASV-NH2 [SEQ ID NO 345] | 1000 | 18.8 |
| PSLSIDLPLLLLRTLLELEKTQSQRERAEQNAIIFASV-NH2 [SEQ ID NO 344] | 650 | – |
| ZGPPISIDLPFQLLRILIEIEKQEKEKQQAANNALLLAT (C-terminal amide) [SEQ ID NO 358] | 99 | 100 |
| DNPSLSIDLPLQLLRTLLELEKTQSQRERAEQNAIIFASV-NH2 [SEQ ID NO 342] | 1000 | 19.6 |
| IVLSLDVPIGLLQILLEQARHAHAHAHAHAQAHILAHV-NH2 [SEQ ID NO 369] | 1000 | 4 |
| IVLSLDVPIGLLQILLEQARARAAREQATTNARILARV-NH2 [SEQ ID NO 354] | 1000 | 13.4 |

| Binder | CRF1R EC50 [nM] | CRF1R Emax % [%] |
| --- | --- | --- |
| IVLSLDVPIHLLQILLEQARARAAREQATTNARILARV-NH2 [SEQ ID NO 371] | 1000 | 22 |
| IVLSLDVPIGLLQILLEQARHAAAHAAAHAQAHILAHV-NH2 [SEQ ID NO 367] | 1000 | 6 |
| ZGPPISIDLPLQLLRKVIEIEKQEKEKQQAANNALLLATI (C-terminal amide) [SEQ ID NO 349] | 1000 | 44.2 |
| ZGPPISIDLPFQLLRKIIEIEKQEKEKQQAANNALLLATI (C-terminal amide) [SEQ ID NO 362] | 386 | 100 |
| ZGPPISIDLPFQLLRKLIEIEKQEKEKQQAANNALLLATI (C-terminal amide) [SEQ ID NO 357] | 331 | 100 |
| ZGPPISIDLPFQLLRVLIEIEKQEKEKQQAANNALLLATI (C-terminal amide) [SEQ ID NO 361] | 149 | 100 |
| ZGPPISIDLPFQLLRKAIEIEKQEKEKQQAANNALLLDTI (C-terminal amide) [SEQ ID NO 365] | 1000 | 21 |
| ZGPPISIDLSLELLRKMIEIEKQEKEKQQAANNRLLLDTI (C-terminal amide) [SEQ ID NO 355] | 18 | 100 |
| ZGPPISIDLPFQLLRKVIEIEKQEKEKQQAANNALLLDTI (C-terminal amide) [SEQ ID NO 350] | 1000 | 48 |
| ZGPPISIDLPFQLLRKVIEIEKQEKEKQQAANNALLLATI (C-terminal amide) [SEQ ID NO 352] | 780 | 82.6 |
| ZGPPISIDLPFQLLRKAIEIEKQEKEKQQAANNALLLATI (C-terminal amide) [SEQ ID NO 364] | 1000 | 27 |
| ZGPPISIDLPFQLLRLLIEIEKQEKEKQQAANNALLLATI (C-terminal amide) [SEQ ID NO 360] | 157 | 100 |
| ZGPPISIDLPFQLLREVIEIEKQEKEKQQAANNALLLATI (C-terminal amide) [SEQ ID NO 359] | 230 | 100 |
| IVLSLDVSIGLLQILLEQARARAAREQATTNARILARV-NH2 [SEQ ID NO 370] | 1000 | 33 |
| IVLSLDVPIGLLQILLEQARARAAREQATTNARILARVM-NH2 [SEQ ID NO 368] | 1000 | – |
| DNPSLSIDLPLLLLRTLLELEKTQSQRERAEQNAIIFASV-NH2 [SEQ ID NO 347] | 1000 | – |

Source: patent US20030148958A1 (PROCTER AND GAMBLE, published 2003)
